Experimental data taken from IntAct's records for PubMed 33965375.

Target: spike_sars2 S (UniProt P0DTC2)

| Substance | effect of a mutation on the interaction |
| --- | --- |
| Endoplasmic reticulum chaperone BiP (Homo sapiens), P11021 R197H | decreasing interaction strength |
| Endoplasmic reticulum chaperone BiP (Homo sapiens), P11021 G227D | decreasing interaction strength |
